# Source: US20240123029A1
# Molecular target: SARS-CoV-2 S protein trimer, His Tag (in house, EXPI293F cells) (SARS-CoV-2) (UniProt P0DTC2)
# Recombinant human mannose binding lectin (MBL), sequence (P11226 21-248 limits assumed): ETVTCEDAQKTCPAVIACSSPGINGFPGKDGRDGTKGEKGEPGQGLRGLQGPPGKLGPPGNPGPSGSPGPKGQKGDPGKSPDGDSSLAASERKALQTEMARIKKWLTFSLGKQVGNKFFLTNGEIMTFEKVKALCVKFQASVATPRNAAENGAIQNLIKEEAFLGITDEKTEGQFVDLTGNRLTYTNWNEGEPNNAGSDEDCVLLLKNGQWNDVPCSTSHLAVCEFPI
substance,measurement,value
Recombinant human mannose binding lectin (MBL) (from UniProt P11226 21-248),Kd,0.034 µM
same,koff,0.00073 s⁻¹
same,kon,21000 M⁻¹ s⁻¹
